Test [1] deals with yeast Golgi t-SNARE complex Sed5/Sec22/Bos1 with G176W Bos1, preassembled and reconstituted into acceptor liposomes (S. cerevisiae) (UniProt Q01590).
Test [2] deals with yeast Golgi t-SNARE complex Sed5/Sec22/Bos1 with D196del Bos1, preassembled and reconstituted into acceptor liposomes (S. cerevisiae) (UniProt Q01590).

B1: yeast Golgi v-SNARE Bet1, reconstituted into fluorescent donor liposomes (natural protein)
chain: MSSRFAGGNAYQRDTGRTQLFGPADGSNSLDDNVSSALGSTDKLDYSQSTLASLESQSEEQMGAMGQRIKALKSLSLKMGDEIRGSNQTIDQLGDTFHNTSVKLKRTFGNMMEMARRSGISIKTWLIIFFMVGVLFFWVWIT
With B1, the liposome fusion assay (NBD fluorescence), reduction in fusion against WT Bos1; still above the control without Bet1 (% reduction in fusion) was 30 in test [1] and 60 in test [2].
